Our source for the Km values is PMC7784689, “Structural mechanism of phospholipids translocation by MlaFEDB complex” (Cell Research, 2020).

Substrate in this data set: Nc1ncnc2c1ncn2[C@@H]1O[C@H](COP(=O)(O)OP(=O)(O)OP(=O)(O)O)[C@@H](O)[C@H]1O
Nature of the data set: purified protein. The data set is classed as biochemical, Escherichia coli. The note with it: nanodisc-embedded complex (POPG), 0-4 mM ATP, 37 °C, 30 min.

For orientation: Km means the substrate concentration at which the rate is half of its maximum.

B1: MlaFEDB (Escherichia coli K-12) (protein)
chain: MEQSVANLVDMRDVSFTRGNRCIFDNISLTVPRGKITAIMGPSGIGKTTLLRLIGGQIAPDHGEILFDGENIPAMSRSRLYTVRKRMSMLFQSGALFTDMNVFDNVAYPLREHTQLPAPLLHSTVMMKLEAVGLRGAAKLMPSELSGGMARRAALARAIALEPDLIMFDEPFVGQDPITMGVLVKLISELNSALGVTCVVVSHDVPEVLSIADHAWILADKKIVAHGSAQALQANPDPRVRQFLDGIADGPVPFRYPAGDYHADLLPGS
notes: mlaFEDCB operon in pET20b, C-terminal His-tag on MlaB; host E. coli C43(DE3); purified in DDM, reconstituted in MSP1D1/POPG nanodisc; MlaC only in traces (by MS); with Intermembrane phospholipid transport system permease protein MlaE
As for B1, the Km turned out to be 90 ± 20 µM.
